Experiment: yeast display, Sf9 membrane polyspecificity reagent, FACS + sequencing; frameworks hold sequencing errors
Method in brief: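 Galactose-induced (36–48 hours) yeast carrying a synthetic nanobody display library were exposed to 10% biotinylated, detergent-solubilized Sf9 membrane reagent at 4 °C for 1 hour. FACS followed streptavidin microbead enrichment, using low and high (top ~1%) gates for expression (anti-HA) and reagent binding (streptavidin). Colony PCR, MiSeq 2 × 250 sequencing and CDR-length filtering followed. Labels for polyreactivity reflect the gate of origin.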

Row | Sequence | polyreactivity (PSR sort gate)
1 | QVQLEESGGALVQAGGSLRLSCAASGFIFTLYAMGWYRQAPGKEREFVAAISWSDGSTTYADSVKGRFTISRDNAKNTVYLQMNSLNPEDTAVYYCAAVTSSYIRGLVYHFYYWGQGTQVTVSS | low polyreactivity
2 | QVQLVESGGGLVQAGGSLRLSCAASGFTFSTNAMGWYRPAPGKERELVAAISPDGGTYYADSVKGRFTISRDNAKNTVYLQMNSLIPEDTAVYYCAAVWGRGVWDLYDYWGQGTQVTVSS | low polyreactivity
3 | QVQLVESGGGLVQAGGSLRLSCAPSGRTFGSNTMGLYRQAPGKEIELVAGITFSSGSTYYADSVKGRFTISRDNANNTVYLQMNSLKPEDTAVYDCAVRNASKNRKYYYWGQGTQVTVSS | high polyreactivity
4 | QVQLVESGGGLVQAGGSLRLSCAASGFIFLTNSMGWYRQAPGKERELVAAIRWSDDGTYYADSVKGRFTISRDNAKNTVYLQMNSLKPEDTEVYYCAKEVRNTVTTTGQGTQVTVSS | low polyreactivity
5 | QVQLVESGGGLVQAGGSLRLSCAASGLTFWSYAMGWYRQAPGKERELVAAISKRGGSTYYADSVKGRFTISRDNAKNTVYLQMNSLKPEDTAVYYCAARTFRALNKYYYWGQGTQVTVSS | high polyreactivity
6 | QVQLVESGGGLVPAGGSLRLSCAASGSIFYHNAMGWYRQAPGKERELVAAISYRTGRTYYADSVKGRFTISRDNAKNTVYLQMNSLKPEDTAVYYCAAPYSWGQATQVTVSS | high polyreactivity
7 | QVQLVETGGGLVQAGGSLRLICAASGSIFQGNVMGWYRQAPGKERELVAAISSGGRTYYADSVKGRFTISRDNAKNTVYLQMNSLKPEDTAVYYCAASWLTSYAYIMYYWGQGTQVTVSS | high polyreactivity
8 | QVQLVESGVGLVQAGGSLRLSCAASGSTLVSYAKGWYIQAPGKERELVASISSGDSTYADSVKGRFTISRDNAKNTVYLQMNSLKPEDTAVYYCNVGNEGSYGFPVTYEYWGQGTQVTVSS | low polyreactivity
9 | QVQLVKSGGGLVQAGGSLRLSCAASRFIIPEYTMGWYRQAPGKARELVAAISGSGGSTYYADSVKGRFTISRDNAKHTVYLQMNSLKPEDTAVYYCATAFIVPFPGSDYWGQGTQVTVSS | low polyreactivity
10 | QVQLVESGGGLVQAGGSLRLSCAASGSIFDIYAMGWYRQAPGKERELVASIRRRGGSTYYADSVKGRFTISRDNAKNTVYLQMNSLKPEDTAVYYCNARRVWLRTTGTNWPERGYWGQGTQVTVSS | high polyreactivity
11 | QVQLVESGGGLVQAGGSLRLSCAASGSIFHVYGMGWYRQAPGKEREFVADITSRGTRTYYADSVKGRFTISRDNAKNTVYLQMNSLKPEDTAVYYCNTLVGVDFWLVDYWGQVTQVTVSS | low polyreactivity
12 | QVQHVESGGALVQAGGSLRLSCAASARTFPGYTMGWYRQAPGKETELVAAITRVGTTYYADSVKGRFTISRDNAKNTVYLQMNSLKPEDTAVYYCAAVISQGFIRYYYWGQGTQVTVSS | high polyreactivity
13 | QVQLEESAGGLVQAGGSLRLSCAASGSIFFWNDLGWYRQAPGKERELVAAISWSGGSTSYADSVKGRFTISRDNAKNTVYLQMNSLKPEDTAVYYCAADFYYRTLYGYIGMDYWGQGTQVTVSS | low polyreactivity
14 | QVQVVESGGGLVQAGGSLRLSCAASGRTFTRYAMGWYRQAPGKERELVATITRGGSTNYADSVKGRFTISRDNAKNTVYLQMNSLKPEDTAVYYCAAGYFIRTRSRYRYDYWGQGTQVTVSS | high polyreactivity
15 | QVQLVESGGGLVQAGGSLRLCCAASGIIFDGYAMGWYRQAPGKERELVAGITIGDITYYADSVKGRFTISRDNAKNTVYLQMTSLKPEDTAVYYCAADSYYYQTAYDYWGQGTQVTVSS | low polyreactivity
16 | QVQLVESGGGLVQAGGSLRLSCAASGSIFYENMGWYRQAPGKERELVASISWSGTSTYADSVKGRFTISRDNAKNTVYLQMNSLKPEDTAVYYCAAGKNGYTYSRSYSYGYWGQGTQVTVSS | high polyreactivity

Row | Sequence | polyreactivity (PSR sort gate)
17 | QDQLVDSGGGLVQAGGSLRLSCAASGRIFRGNAMGWYRQAPGKERELVAAISNSGGRTYYADSVKGRFTISRDNAKNTVYLQMNSLKPDDTAVSYCAAKAPVIFWDTRIVPGYSGYYYWGQGTQVTVSS | high polyreactivity
18 | QVQLVESGGGLVQAGGSLRLSCAAYGSIFVLNAMGWYRQAPGKERQLVAAITNVGSTYYADSVKGRFTISRDNAKNTVYLQMNSLKPEDTAVYYCNADPGEVLVGYDYWGQGTQVSVSS | low polyreactivity
19 | QVQLVESGGGLVQAGGSLRLSCAASGRIFYSNAMGWYRQAPGKERELVAGINYRDGSTYYADSVKGRFTISRDNAKKTVYLQMNSLKPEDTAVYYCAKRRQSYPYKTSTWYSHYSWGQGTQVTVSS | high polyreactivity
20 | QVQLVDSGGGLVQAGGSLRLSCAASGINFQGNAMGWYRQAPGKERELVASITAGGDTTYYADSVKGRFTISRDNAKNTVYLQMNSLKPEDTAVYYCAVDSWLDADDSYPDSILVDYWGQGTQVTVSS | low polyreactivity
21 | QVQIVESGGGLVQAGGILRLSCAASGNTFGYYAMGWYRQAPGKEWELVAAISRGGGSTYYADSVKGRFTISRDNAKNTVYLQMNRLKPEDTAVYYCARRYRLSTSWSYRVGYWGQGTQVTVSS | high polyreactivity
22 | QVQLVESGGGLVQAGGSLRLSCAASGIIFYRNTMGWYRQAPGKEWELVAAIRRGGNTYYADSVKGRFTISRDNAKNTVYLQMNSLKPEDTAVYYCAASAGPRASYYYWGQGTQVTVSS | high polyreactivity
23 | QVQLVESGGGLVQAGGSLRLSCAASGRIFYSNVMGWYRQAPGKERELVAAISGRTGGTYYADSVKGRFTISRDNAKNTVYLQMNSLKPEDTAVYYCNAYSLRHHHSDYWGQGTQVTVSS | low polyreactivity
24 | QVQLVESGGGLVQAGGSLRLSCAASGRIFSIYAMGWYRQAPGKERELVAAIRSRGGRTHYADSVKVRFTISRDNAKNTVYLQMNSLKPEDTAVYFCNAKYFSGDNYWGQGTQVTVSS | high polyreactivity
25 | QVQLVESGGGLVQAGGSLRLSCAASGGTFDVYTMGWYRQAPGKERELVAVISSSGGGTYYADSVKGRFTISRDNAKNTVYLQMNSLKPEDTAVYYCAARRKRQNTYYPYYYWGQGTQVTVSS | high polyreactivity
26 | QVQLVESGGGLVQAGGSLRLSCAASGSIYGRNAMGWYRQAPGKERELFAAISSSGGRTYYADSVKGRFTISRDNAKNTVYLQMNSLKPEDTAVYYCAADASYARYYSQYDYWGQGTQVTVSS | high polyreactivity
27 | QVQLVESGGGLVQAGGSLRLSCAASGLIYFYAMGWYRQAPGKERELVAAISSTGGRTYYADSVKGRFTIARDNAKNTVYLQMNSVKPEDTAVYYCNVLVYNVYTRGYYSYKYYFWGQGTQVTVSS | high polyreactivity
28 | QVQLVESGGGLVQAGGSLRLSCAASGRTFYSYAMGWYRQAPGKERELVAAISASGGRTYYADSVKGRFTISRDNAKNTVYLQMNSLKPEDTAVYYCAAYPWYRMWGQGTQVTVSS | high polyreactivity
29 | QVQLVESGGGLVQAGGSRSLSCAASGSIFLVNAMGWYRQAPGKERELVAAINSGGSTYYADSVKGRFTISRDNAKNTVYLQMNSLKPEDTAVYYCAADFWLKVWQDTDYDYDYWGQGTQVTVSS | low polyreactivity
30 | QVQLVESGGGLVQAGGSLRLSCAASGFTFTSNAMGWYRQAPGKEREFVADISNIGGDTTYADSVKGRFTISRDNAKNTVYLQMNSLKPEDTAVYYCKADFAFIENDYWGQGTQVTVSS | low polyreactivity
31 | QVQLVESGGGLVQAGGSLRLSCASSGLIYHRNAMGWYRQAPGKERELVAAITKTGGGTYYADSVKGRFTISRDNAKNTVYLQMNSLKPEDTAVYYCAADTQRTFYYWGQGTQVTVSS | low polyreactivity

— the nanobody polyreactivity screen of Harvey et al. (2022)
